± gives the uncertainty stated by the source.
B1: Dystrobrevin alpha, residues 235 to 294; numbered along this chain, Q9Y4J8 (parent)
chain: ENVFHPVECSYCHSESMMGFRYRCQQCHNYQLCQDCFWRGHAGGSHSNQHQMKEYTSWKS

Variants of: B1
Assay: abundance fitness (aPCA) (normalised: wild type 0, dead -1); higher = more abundant; growth selection in yeast, the domain comes from the species named
Conditions: Homo sapiens

Variant	abundance fitness
H13W	-0.584 ± 0.077
H13Y	-0.165 ± 0.095
H13E	-0.23 ± 0.093
H13F	-0.243 ± 0.11
H13S	-0.096 ± 0.073
H13L	-0.176 ± 0.045
H13N	-0.169 ± 0.11
H13M	-0.109 ± 0.054
H13P	-0.677 ± 0.081
H13K	-0.027 ± 0.068
H13D	-0.474 ± 0.079
H13I	-0.406 ± 0.19
H13G	-0.027 ± 0.048
H13Q	-0.172 ± 0.084
H13A	-0.107 ± 0.058
H13V	-0.457 ± 0.063
H13T	-0.076 ± 0.055
H13R	-0.061 ± 0.055
H13C	-0.176 ± 0.12
Q25S	-0.159 ± 0.042
Q25K	-0.003 ± 0.066
Q25R	-0.158 ± 0.052
Q25W	-0.662 ± 0.11
Q25H	-0.193 ± 0.16

Variant	abundance fitness
Q25Y	-0.327 ± 0.087
Q25D	-0.117 ± 0.095
Q25F	-0.325 ± 0.12
Q25G	-0.202 ± 0.052
Q25V	0.019 ± 0.048
Q25N	-0.128 ± 0.095
Q25P	-0.426 ± 0.078
Q25L	-0.026 ± 0.053
Q25I	-0.208 ± 0.13
Q25A	-0.213 ± 0.063
Q25T	-0.004 ± 0.072
Q25C	-0.102 ± 0.1
Q25E	0.078 ± 0.064
Q25M	0.061 ± 0.091
Q26I	0.011 ± 0.091
Q26G	-0.277 ± 0.058
Q26M	-0.355 ± 0.086
Q26A	0.006 ± 0.079
Q26V	0.273 ± 0.081
Q26C	-0.301 ± 0.11
Q26K	-0.288 ± 0.13
Q26F	-0.283 ± 0.2
Q26W	-0.498 ± 0.1
Q26D	0.341 ± 0.085

Variant	abundance fitness
Q26T	0.012 ± 0.088
Q26N	0.022 ± 0.065
Q26L	-0.287 ± 0.087
Q26E	-0.058 ± 0.083
Q26H	-0.315 ± 0.093
Q26R	-0.232 ± 0.05
Q26P	-0.545 ± 0.11
Q26S	-0.024 ± 0.054
G19T	-0.147 ± 0.084
G19F	-0.219 ± 0.09
G19Q	0.046 ± 0.04
G19S	0.089 ± 0.051
G19L	-0.134 ± 0.044
G19K	0.129 ± 0.062
G19N	-0.027 ± 0.085
G19E	-0.103 ± 0.075
G19C	-0.191 ± 0.077
G19I	-0.256 ± 0.11
G19V	-0.13 ± 0.071
G19D	-0.046 ± 0.14
G19Y	-0.248 ± 0.071
G19M	-0.167 ± 0.075
G19P	0.018 ± 0.084
G19H	0.003 ± 0.094

Variant	abundance fitness
G19A	0.176 ± 0.069
F20T	0.15 ± 0.057
F20M	-0.004 ± 0.074
F20C	0.14 ± 0.069
F20D	0.106 ± 0.071
F20N	0.217 ± 0.065
F20P	0.307 ± 0.057
F20Y	0.045 ± 0.091
F20V	0.104 ± 0.043
F20G	0.163 ± 0.046
F20I	0.061 ± 0.083
F20Q	0.134 ± 0.044
F20H	0.151 ± 0.086
F20A	0.224 ± 0.054
F20W	0.137 ± 0.078
F20S	0.237 ± 0.038
F20K	0.31 ± 0.076
Y22A	-0.13 ± 0.07
Y22D	-0.814 ± 0.15
Y22N	-0.364 ± 0.27
Y22I	-0.337 ± 0.14
Y22E	-0.675 ± 0.17
Y22P	-0.904 ± 0.32
Y22L	-0.3 ± 0.063

Variant	abundance fitness
Y22Q	-0.754 ± 0.17
Y22C	-0.409 ± 0.15
Y22M	-0.142 ± 0.15
Y22R	-0.241 ± 0.083
Y22T	-0.437 ± 0.11
Y22K	-0.263 ± 0.095
Y22G	-0.658 ± 0.11
Y22S	-0.405 ± 0.085
Y22H	-0.053 ± 0.29
Y22V	-0.051 ± 0.075
Y22W	-0.086 ± 0.069
C12V	-1.1 ± 0.1
C12N	-0.746 ± 0.22
C12T	-0.868 ± 0.12
C12R	-0.768 ± 0.072
C12P	-1.29 ± 0.2
C12W	-1.27 ± 0.18
C12L	-1.22 ± 0.11
C12S	-1.17 ± 0.13
C12Q	-1 ± 0.18
C12M	-1.11 ± 0.14
H28P	0.066 ± 0.078
H28E	0.063 ± 0.06
H28N	0.152 ± 0.076

Variant	abundance fitness
H28I	0.033 ± 0.062
H28G	-0.1 ± 0.042
H28L	0.002 ± 0.046
H28D	0.209 ± 0.053
H28R	-0.002 ± 0.052
H28K	0.122 ± 0.063
H28T	0.1 ± 0.053
H28M	-0.008 ± 0.064
H28V	0.06 ± 0.047
H28S	0.027 ± 0.051
H28C	-0.093 ± 0.061
H28F	-0.112 ± 0.065
H28A	0.145 ± 0.043
H28W	-0.16 ± 0.082
R23C	0.176 ± 0.084
R23L	0.002 ± 0.063
R23I	-0.05 ± 0.087
R23G	-0.158 ± 0.061
R23F	-0.034 ± 0.087
R23D	-0.022 ± 0.091
R23M	0.006 ± 0.093
R23W	-0.276 ± 0.078
R23P	-0.509 ± 0.091
R23S	0.066 ± 0.05

Variant	abundance fitness
R23T	-0.008 ± 0.073
R23H	0.201 ± 0.11
R23V	0.074 ± 0.081
R23E	0.03 ± 0.059
R23A	-0.049 ± 0.076
R23K	0.147 ± 0.069
R23Y	-0.138 ± 0.11
R23Q	0.034 ± 0.074
Q31E	0.112 ± 0.072
Q31D	-0.012 ± 0.076
Q31I	-0.053 ± 0.089
Q31F	0.119 ± 0.15
Q31A	-0.085 ± 0.055
Q31C	-0.151 ± 0.15
R21I	-0.128 ± 0.16
R21K	0.047 ± 0.22
R21M	0.063 ± 0.11
R21C	-0.092 ± 0.16
R21A	-0.02 ± 0.1
R21H	0.165 ± 0.2
R21L	0.058 ± 0.11
R21S	0.138 ± 0.095
R21W	-0.02 ± 0.28
R21V	-0.207 ± 0.081

Variant	abundance fitness
R21G	-0.15 ± 0.09
R21E	-0.07 ± 0.23
R21T	0.088 ± 0.096
R21D	-0.436 ± 0.12
R21F	-0.188 ± 0.21
R21Y	-0.394 ± 0.45
C27T	-0.877 ± 0.12
C27L	-0.998 ± 0.14
C27H	-0.814 ± 0.39
C27P	-0.578 ± 0.15
C27R	-0.876 ± 0.066
C27D	-0.667 ± 0.13
C27E	-0.717 ± 0.089
C27W	-0.838 ± 0.13
C27K	-0.745 ± 0.09
C27V	-0.85 ± 0.066
C27A	-0.727 ± 0.068
C27M	-0.814 ± 0.12
C27F	-0.434 ± 0.17
C27Q	-0.943 ± 0.18
C27N	-0.841 ± 0.19
Y30W	-0.458 ± 0.072
Y30K	-0.519 ± 0.095
Y30R	-0.301 ± 0.052

Variant	abundance fitness
Y30V	-0.206 ± 0.059
Y30H	-0.53 ± 0.11
Y30S	-0.478 ± 0.069
Y30T	-0.426 ± 0.094
Y30D	-0.508 ± 0.1
Y30Q	-0.559 ± 0.085
Y30L	-0.36 ± 0.059
Y30P	-0.638 ± 0.079
Y30C	-0.554 ± 0.22
Y30M	-0.288 ± 0.09
Y30A	-0.398 ± 0.093
Y30G	-0.553 ± 0.043
Y30F	-0.183 ± 0.1
Y30E	-0.378 ± 0.09
C24E	-0.615 ± 0.046
C24Q	-0.561 ± 0.1
C24M	-0.731 ± 0.12
C24R	-0.97 ± 0.071
C24G	-0.736 ± 0.058
C24I	-0.822 ± 0.19
C24Y	-0.935 ± 0.23
C24V	-0.838 ± 0.1
C24D	-0.441 ± 0.18
C24N	-0.691 ± 0.12

Variant	abundance fitness
C24T	-0.752 ± 0.1
C24F	-1.04 ± 0.14
C24K	-0.928 ± 0.14
C24P	-1.08 ± 0.28
C24H	-0.887 ± 0.15
C24W	-1.07 ± 0.16
C24L	-0.911 ± 0.062
C24S	-0.851 ± 0.071
M18T	0.075 ± 0.06
M18Y	0.075 ± 0.073
M18V	0.155 ± 0.055
M18D	0.129 ± 0.072
M18E	0.103 ± 0.068
M18H	0.163 ± 0.09
M18A	0.199 ± 0.053
M18Q	0.156 ± 0.12
M18S	0.133 ± 0.052
M18W	-0.266 ± 0.12
M18F	0.126 ± 0.088
M18I	-0.021 ± 0.092
M18L	0.09 ± 0.055
M18R	0.111 ± 0.048
M18P	0.116 ± 0.064
M18G	0.064 ± 0.059

Variant	abundance fitness
M18K	0.029 ± 0.07
M18C	-0.189 ± 0.071
M18N	0.101 ± 0.074
S16K	0.001 ± 0.08
S16Q	0.043 ± 0.089
S16F	-0.084 ± 0.054
S16D	0.012 ± 0.085
S16P	-0.029 ± 0.059
S16N	-0.011 ± 0.074
S16R	0.06 ± 0.046
S16M	-0.041 ± 0.073
S16W	-0.208 ± 0.057
S16C	-0.092 ± 0.063
S16A	-0.049 ± 0.059
S16L	0.023 ± 0.045
S16V	0.009 ± 0.055
S16E	-0.033 ± 0.067
S16T	0.014 ± 0.062
S16H	-0.206 ± 0.083
S16G	-0.128 ± 0.056
S16Y	-0.304 ± 0.069
S16I	0.148 ± 0.055
M17E	0.116 ± 0.095
M17R	0.007 ± 0.046

Variant	abundance fitness
M17H	0.116 ± 0.077
M17A	-0.037 ± 0.056
M17T	0.081 ± 0.069
M17W	-0.084 ± 0.071
M17S	0.109 ± 0.053
M17V	0.004 ± 0.059
M17G	0.085 ± 0.047
M17I	0.045 ± 0.088
M17Q	-0.019 ± 0.086
M17Y	-0.183 ± 0.094
M17C	-0.055 ± 0.069
M17D	0.059 ± 0.071
M17P	-0.008 ± 0.061
M17N	0.046 ± 0.064
M17F	-0.002 ± 0.076
M17K	0.136 ± 0.066
E15M	0.074 ± 0.08
E15P	0.1 ± 0.09
E15A	-0.041 ± 0.055
E15I	0.018 ± 0.14
E15C	-0.171 ± 0.09
E15H	0.078 ± 0.091
E15W	-0.104 ± 0.072
E15Q	0.079 ± 0.062

Variant	abundance fitness
E15T	0.034 ± 0.042
E15K	-0.022 ± 0.083
E15L	-0.087 ± 0.05
E15Y	-0.23 ± 0.091
E15R	0.054 ± 0.054
E15F	-0.133 ± 0.1
E15G	-0.105 ± 0.062
E15S	0.03 ± 0.049
E15N	0.03 ± 0.11
E15D	0.195 ± 0.1
S14H	-0.081 ± 0.13
S14W	-0.416 ± 0.13
S14Y	-0.324 ± 0.074
S14A	-0.051 ± 0.063
S14R	0.042 ± 0.06
S14E	-0.074 ± 0.082
S14N	-0.003 ± 0.11
S14G	-0.11 ± 0.059
S14D	-0.13 ± 0.072
S14L	-0.153 ± 0.056
S14P	-0.679 ± 0.094
S14Q	-0.16 ± 0.097
S14C	-0.086 ± 0.077
S14T	-0.026 ± 0.053

Variant	abundance fitness
S14M	-0.149 ± 0.057
S14V	0.088 ± 0.061
S14K	-0.043 ± 0.11
S14F	-0.622 ± 0.11
N29G	-0.058 ± 0.047
N29E	-0.152 ± 0.09
N29Q	0.1 ± 0.074
N29D	0.052 ± 0.081
N29K	-0.156 ± 0.08
N29S	-0.063 ± 0.051
N29W	-0.183 ± 0.064
N29T	-0.213 ± 0.065
N29M	-0.044 ± 0.085
N29P	-0.388 ± 0.063
N29L	-0.125 ± 0.047
N29R	-0.171 ± 0.048
N29V	-0.281 ± 0.059
N29C	0.186 ± 0.082
N29A	-0.028 ± 0.07
N29H	-0.075 ± 0.091
N29Y	-0.204 ± 0.084
N29F	0.007 ± 0.062

— the Human Domainome abundance scans (Beltran et al. 2025)
